Laboratory results as given in patent publication US20250019440A1 (Zymeworks, published 2025).
Changes are numbered by the printed parent chain. In names and notes the source's numbering stands. Each block holds one binder with its values, some of them ahead of it.

How the values were obtained:
CD3 on T cells [1] = target: T1, CD3 on T cells (Homo sapiens (Human), UniProt P07766 23-207; P04234 22-171; P09693 23-182); assay: cell-based or functional assay
PD-L1 on cells = PD-L1 on cells (UniProt Q9NZQ7 19-290, limits assumed); assay: cell-based or functional assay
Sequence of PD-L1 on cells (Q9NZQ7 19-290 limits assumed): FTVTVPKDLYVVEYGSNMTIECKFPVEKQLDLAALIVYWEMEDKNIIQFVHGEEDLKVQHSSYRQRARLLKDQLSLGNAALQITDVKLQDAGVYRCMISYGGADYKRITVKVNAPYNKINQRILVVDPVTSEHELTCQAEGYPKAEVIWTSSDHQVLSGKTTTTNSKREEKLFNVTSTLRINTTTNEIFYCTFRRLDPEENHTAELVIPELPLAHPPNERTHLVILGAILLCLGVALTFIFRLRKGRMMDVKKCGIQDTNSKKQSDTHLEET

CD3 on T cells [2] = target: T1, CD3 on T cells; assay: cell-based or functional assay; remark: listed apart in the source
Human CD3 (recombinant) = Human CD3 (recombinant) (human); assay: SPR, CD3 amine-coupled, variant as analyte, 1:1 model
Sequence of Human CD3 (recombinant) (human) (chain, as listed by the source): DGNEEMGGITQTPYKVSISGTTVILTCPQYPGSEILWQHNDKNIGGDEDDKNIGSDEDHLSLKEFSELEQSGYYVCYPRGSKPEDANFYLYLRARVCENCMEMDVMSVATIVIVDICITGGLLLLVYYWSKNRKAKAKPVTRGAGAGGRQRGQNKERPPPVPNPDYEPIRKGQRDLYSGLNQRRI

Human PD-L1 = target: T2, Human PD-L1 (human, UniProt Q9NZQ7 19-239); assay: SPR, PD-L1 amine-coupled, variant as analyte
T2 construct: Amine-coupled to a CM5 chip for SPR; also called recombinant human PD-L1
T2 sequence (Q9NZQ7 19-239 limits assumed): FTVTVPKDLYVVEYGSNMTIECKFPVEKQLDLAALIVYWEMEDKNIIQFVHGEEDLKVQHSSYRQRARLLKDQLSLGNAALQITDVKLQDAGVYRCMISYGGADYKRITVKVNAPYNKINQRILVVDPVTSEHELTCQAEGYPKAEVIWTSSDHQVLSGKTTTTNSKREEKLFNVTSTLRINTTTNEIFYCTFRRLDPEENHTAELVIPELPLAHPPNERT

T1 sequence (P07766 23-207 limits assumed, chain 1 of 3): as the sequence (chain, as listed by the source) above
T1 sequence (P04234 22-171 limits assumed, chain 2 of 3): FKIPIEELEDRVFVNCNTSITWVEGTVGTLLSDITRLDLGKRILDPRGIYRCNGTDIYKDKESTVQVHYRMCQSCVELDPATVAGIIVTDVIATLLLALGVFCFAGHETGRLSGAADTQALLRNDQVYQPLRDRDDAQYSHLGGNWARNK
T1 sequence (P09693 23-182 limits assumed, chain 3 of 3): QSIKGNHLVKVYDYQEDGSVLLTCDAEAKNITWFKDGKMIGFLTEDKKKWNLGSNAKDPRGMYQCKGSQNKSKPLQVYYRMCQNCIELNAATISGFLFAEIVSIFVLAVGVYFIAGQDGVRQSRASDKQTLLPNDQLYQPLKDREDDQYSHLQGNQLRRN

B3: v39001 (bispecific) (other)
heavy chain 1 (H1): EVQLVESGGGLVQPGGSLRLSCAASGVTFNYYGMSWIRQAPGKGLEWVASITSSGGRIYYPDSVKGRFTISRENTQKTLYLQMNSLRAEDTAVYYCTLDGRDGWVAYWGQGTLVTVSSASTKGPSVFPLAPSSKSTSGGTAALGCLVKDYFPEPVTVSWNSGALTSGVHTFPAVLQSSGLYSLSSVVTVPSSSLGTQTYICNVNHKPSNTKVDKKVEPKSCDKTHTCPPCPAPEAAGGPSVFLFPPKPKDTLMISRTPEVTCVVVSVSHEDPEVKFNWYVDGVEVHNAKTKPREEQYNSTYRVVSVLTVLHQDWLNGKEYKCKVSNKALPAPIEKTISKAKGQPREPQVYVYPPSRDELTKNQVSLTCLVKGFYPSDIAVEWESNGQPENNYKTTPPVLDSDGSFALVSKLTVDKSRWQQGNVFSCSVMHEALHNHYTQKSLSLSPGGGGGSGQVQLVESGGGLVQPGGSLRLSCSVSGIDLSSNPMIWVRQAPGKGLQYIGIIDTDGSTYYADWAKGRFTISKDSTTVYLQINSPRAEDTAVYYCARRLHGSSNGYYDDLWGQGTLVTVSSGGGGSGGGGSGGGGSGGGGSDGQMTQSPSSVSASVGDRVTITCQASQSIYSYLSWYQQKPGQRPKLLIYKASTLASGVPSRFSGSGSGTDFTLTISSVQPEDFATYYCQQGYTVTNVDKNTFGGGTKVEIK
light chain (L1): NFMLTQPHSVSESPGKTVTISCKRNTGNIGSNYVNWYQQHEGSSPTTIIYRNDKRPDGVSDRFSGSIDRSSKSASLTISNLKTEDEADYFCQSYSSGFIFGGGTKLTVLGQPKAAPSVTLFPPSSEELQANKATLVCLISDFYPGAVTVAWKADSSPVKAGVETTTPSKQSNNKYAASSYLSLTPEQWKSHRSYSCQVTHEGSTVEKTVAPTECS
heavy chain 2 (H2): NPPTFSPALLVVTEGDNATFTCSFSNTSESFVLNWYRMSPSNQTDALAAFPEDRSQPGQDARFRVTQLPNGRDFHMSVVRARRNDSGTYLCGAASLAPKAQIKESLRAELRVTEGGGGSGQVQLVESGGGLVQPGGSLRLSCSVSGIDLSSNPMIWVRQAPGKGLQYIGIIDTDGSTYYADWAKGRFTISKDSTTVYLQINSPRAEDTAVYYCARRLHGSSNGYYDDLWGQGTLVTVSSGGGGSGGGGSGGGGSGGGGSDGQMTQSPSSVSASVGDRVTITCQASQSIYSYLSWYQQKPGQRPKLLIYKASTLASGVPSRFSGSGSGTDFTLTISSVQPEDFATYYCQQGYTVTNVDKNTFGGGTKVEIKAAEPKSSDKTHTCPPCPAPEAAGGPSVFLFPPKPKDTLMISRTPEVTCVVVSVSHEDPEVKFNWYVDGVEVHNAKTKPREEQYNSTYRVVSVLTVLHQDWLNGKEYKCKVSNKALPAPIEKTISKAKGQPREPQVYVLPPSRDELTKNQVSLLCLVKGFYPSDIAVEWESNGQPENNYLTWPPVLDSDGSFFLYSKLTVDKSRWQQGNVFSCSVMHEALHNHYTQKSLSLSPG
- EC50 (read off the curve); hybrid PD-1/PD-L1 reporter gene assay, delta RLU, PD-1+ Jurkat T cells with SNU-620 cells, top right graph (CD3 on T cells [2]): ~50 pM

B4: v39004 - A132L (other)
heavy chain 1 (H1): B3 heavy chain 1 (H1)
light chain (L1): B3 light chain (L1)
heavy chain 2 (H2): QVQLVESGGGLVQPGGSLRLSCSVSGIDLSSNPMIWVRQAPGKGLQYIGIIDTDGSTYYADWAKGRFTISKDSTTVYLQINSPRAEDTAVYYCARRLHGSSNGYYDDLWGQGTLVTVSSGGGGSGGGGSGGGGSGGGGSDGQMTQSPSSVSASVGDRVTITCQASQSIYSYLSWYQQKPGQRPKLLIYKASTLASGVPSRFSGSGSGTDFTLTISSVQPEDFATYYCQQGYTVTNVDKNTFGGGTKVEIKAAEPKSSDKTHTCPPCPAPEAAGGPSVFLFPPKPKDTLMISRTPEVTCVVVSVSHEDPEVKFNWYVDGVEVHNAKTKPREEQYNSTYRVVSVLTVLHQDWLNGKEYKCKVSNKALPAPIEKTISKAKGQPREPQVYVLPPSRDELTKNQVSLLCLVKGFYPSDIAVEWESNGQPENNYLTWPPVLDSDGSFFLYSKLTVDKSRWQQGNVFSCSVMHEALHNHYTQKSLSLSPGGGGGSGDRPWNPPTFSPALLVVTEGDNATFTCSFSNTSESFVLNWYRMSPSNQTDKLAAFPEDRSQPGQDARFRVTQLPNGRDFHMSVVRARRNDSGTYLCGAISLAPKLQIKESLRAELRVTE
- EC50 (read off the curve); hybrid PD-1/PD-L1 reporter gene assay, delta RLU, PD-1+ Jurkat T cells with SNU-620 cells, bottom graph; composite signal of CD3 engagement and PD-1:PD-L1 blockade (PD-L1 on cells): ~40 pM

B5: v39005 (bispecific) (other)
heavy chain 1 (H1): B3 heavy chain 1 (H1)
light chain (L1): B3 light chain (L1)
heavy chain 2 (H2): B4 heavy chain 2 (H2) with K539A, I587A, L593A
- EC50 (read off the curve); hybrid PD-1/PD-L1 reporter gene assay, delta RLU, PD-1+ Jurkat T cells with SNU-620 cells, bottom graph (CD3 on T cells [2]): ~50 pM

B6: v38424 (other)
heavy 1: EVQLVESGGGLVQPGGSLRLSCAASGVTFNYYGMSWIRQAPGKGLEWVASITSSGGRIYYPDSVKGRFTISRENTQKTLYLQMNSLRAEDTAVYYCTLDGRDGWVAYWGQGTLVTVSSASTKGPSVFPLAPSSKSTSGGTAALGCLVKDYFPEPVTVSWNSGALTSGVHTFPAVLQSSGLYSLSSVVTVPSSSLGTQTYICNVNHKPSNTKVDKKVEPKSCDKTHTCPPCPAPEAAGGPSVFLFPPKPKDTLMISRTPEVTCVVVSVSHEDPEVKFNWYVDGVEVHNAKTKPREEQYNSTYRVVSVLTVLHQDWLNGKEYKCKVSNKALPAPIEKTISKAKGQPREPQVYVYPPSRDELTKNQVSLTCLVKGFYPSDIAVEWESNGQPENNYKTTPPVLDSDGSFALVSKLTVDKSRWQQGNVFSCSVMHEALHNHYTQKSLSLSPGGGGGSGDRPWNPPTFSPALLVVTEGDNATFTCSFSNTSESFVLNWYRMSPSNQTDALAAFPEDRSQPGQDARFRVTQLPNGRDFHMSVVRARRNDSGTYLCGAASLAPKAQIKESLRAELRVTE
light: B3 light chain (L1)
heavy 2: QVQLVESGGGLVQPGGSLRLSCSVSGIDLSSNPMIWVRQAPGKGLQYIGIIDTDGSTYYADWAKGRFTISKDSTTVYLQINSPRAEDTAVYYCARRLHGSSNGYYDDLWGQGTLVTVSSGGGGSGGGGSGGGGSGGGGSDGQMTQSPSSVSASVGDRVTITCQASQSIYSYLSWYQQKPGQRPKLLIYKASTLASGVPSRFSGSGSGTDFTLTISSVQPEDFATYYCQQGYTVTNVDKNTFGGGTKVEIKAAEPKSSDKTHTCPPCPAPEAAGGPSVFLFPPKPKDTLMISRTPEVTCVVVSVSHEDPEVKFNWYVDGVEVHNAKTKPREEQYNSTYRVVSVLTVLHQDWLNGKEYKCKVSNKALPAPIEKTISKAKGQPREPQVYVLPPSRDELTKNQVSLLCLVKGFYPSDIAVEWESNGQPENNYLTWPPVLDSDGSFFLYSKLTVDKSRWQQGNVFSCSVMHEALHNHYTQKSLSLSPG
notes: CD3 Fab x Cldn18.2 scFv Fc, attenuated (KO) PD-1 attached to HC1 (C-term)
- Kd (Human CD3 (recombinant)): 37000 pM
- binding result (Human PD-L1): no binding

Further lines, results first:

- EC50 (read off the curve); hybrid PD-1/PD-L1 reporter gene assay, delta RLU, PD-1+ Jurkat T cells with SNU-620 cells, bottom right graph (CD3 on T cells [1]): ~50 pM
- EC50 (read off the curve); hybrid PD-1/PD-L1 reporter gene assay, delta RLU, PD-1+ Jurkat T cells with SNU-620 cells, bottom right graph; v39009 varied in the presence of atezolizumab (CD3 on T cells [1]): ~40 pM
B1: v39009 (bispecific) (other)
heavy chain 1 (H1): B3 heavy chain 1 (H1)
light chain (L1): NFMLTQPHSVSESPGKTVTISCKRNTGNIGSNYVNWYQQHEGSSPTTIIYRNDKRPDGVSDRFSGSIDRSSKSASLTISNLKTEDEADYFCQSYSSGFIFGGGTKLTVLGQPKAAPSVTLFPPSSEELQANKATLVCLISDFYPGAVTVAWKADSSPVKAGVETTTPSKQSNNKYAASSYLSLTPEQWKSHRSYSCQVTHEGSTVEKTVAPTECSGGGGSGDRPWNPPTFSPALLVVTEGDNATFTCSFSNTSESFVLNWYRMSPSNQTDALAAFPEDRSQPGQDARFRVTQLPNGRDFHMSVVRARRNDSGTYLCGAASLAPKAQIKESLRAELRVTE
heavy chain 2 (H2): B6 heavy 2

- EC50 (read off the curve); hybrid PD-1/PD-L1 reporter gene assay, delta RLU, PD-1+ Jurkat T cells with SNU-620 cells, top right graph; composite signal of CD3 engagement and PD-1:PD-L1 blockade (PD-L1 on cells): ~40 pM
B2: v39000 - A132L (other)
heavy chain 1 (H1): B3 heavy chain 1 (H1)
light chain (L1): B3 light chain (L1)
heavy chain 2 (H2): B3 heavy chain 2 (H2) with A46K, A94I, A100L
